Measured values published in patent US20210108251, “DETECTION OF ENDONUCLEASE ACTIVITY” (AARHUS UNIVERSITET, published 2021).

B1: REN2-PB-EcoRI (structured_DNA)
DNA: ATTTCCAGAATTCTGGGTATAGGAACTTCGAACGACTCGACTGTGAAGATCGCTTATCGAGTCGTTCGAAGTTCCTATACCCAGAATTCTGGAAAT
modifications: 5'-amine and 3'-amine
B2: REN2-ID33-EcoRI (structured_DNA)
DNA: ATTTGACGAATTCGTCGTATAGGAACTTCGAACGACTCGCCTCAATGCACATGTTTGGCTCCCGAGTCGTTCGAAGTTCCTATACGACGAATTCGTCAAAT
modifications: 5'-amine and 3'-amine

What was measured:
EcoRI [1] = molecular target: T1, EcoRI (UniProt P00642 P00642:2-277); test: cleavage_in_vitro; assayed as pair with SEQ 1; cleavage-ligation-RCA readout; Mg acetate pH 7.9, 37 C; std error 6.6; conditions: tags: Thermo Scientific; chain copies: 2; hairpin
Protocol: (§1) For detection of EcoRI activity, 50 pmol of each of the two substrates REN2-ID33-EcoRI (SEQ ID NO: 1) and REN2-PB-EcoRI (SEQ ID NO: 2) were incubated for 1 h at 37° C. either with or without 10 units of EcoRI. The reaction was done in a reaction buffer containing 500 mM Potassium Acetate; 200 mM Tris-acetate; 100 mM Magnesium Acetate; and 1 mg/ml BSA (pH 7.9). The reaction volume was 50 μL. After incubation, the restriction endonuclease was inactivated by heating to 94° C. for 10 minutes. ATP was added to a final concentration of 10 mM and 1 unit of T4 ligase (Invitrogen) was added. The reaction mixture was then incubated over night at room temperature.
(§2) The two substrate molecules carrying the EcoRI cleavage sites (see materials and methods) were incubated with or without purified enzyme and subjected to the protocol as described in materials and methods (see also FIG. 1A). After counting the signals, the fold increase over background (no enzyme) was calculated.

EcoRI [2] = molecular target: T1, EcoRI; test: cleavage_in_vitro; assayed as pair with SEQ 2; cleavage-ligation-RCA readout; Mg acetate pH 7.9, 37 C; std error 6.6; conditions: tags: Thermo Scientific; chain copies: 2; hairpin
Protocol: as §1, §2

T1 sequence (P00642 2-277, one chain of several): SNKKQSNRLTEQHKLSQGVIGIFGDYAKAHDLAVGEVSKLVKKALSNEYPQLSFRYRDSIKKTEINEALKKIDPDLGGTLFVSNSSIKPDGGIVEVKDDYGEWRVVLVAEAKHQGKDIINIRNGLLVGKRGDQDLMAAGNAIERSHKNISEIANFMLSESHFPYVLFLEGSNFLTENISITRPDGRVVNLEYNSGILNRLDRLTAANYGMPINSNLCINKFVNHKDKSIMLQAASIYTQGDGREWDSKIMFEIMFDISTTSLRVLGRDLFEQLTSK

Binder	activity (EcoRI [1]) [fold over no enzyme]	activity (EcoRI [2]) [fold over no enzyme]
B1	110	
B2		110
